Source: patent publication US20160046707A1 (EISAI R AND D MANAGEMENT, published 2016)
Substitutions are numbered along the chain they refer to.

T1: recombinant human CXCL10 (human, UniProt P02778 22-98)
T1 construct: also called IP-10
T1 sequence (looked up): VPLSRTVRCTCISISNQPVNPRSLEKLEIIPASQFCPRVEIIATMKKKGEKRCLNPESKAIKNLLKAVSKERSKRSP

T2: recombinant human CCL19 (human, UniProt Q99731 22-98)
T2 construct: also called MIP-3b
T2 sequence (looked up): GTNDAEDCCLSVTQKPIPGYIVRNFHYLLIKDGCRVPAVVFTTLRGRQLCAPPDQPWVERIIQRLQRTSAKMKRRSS

T3: recombinant human XCL1 (human, UniProt P47992 23-114, limits assumed)
T3 construct: also called Ltn
T3 sequence (looked up): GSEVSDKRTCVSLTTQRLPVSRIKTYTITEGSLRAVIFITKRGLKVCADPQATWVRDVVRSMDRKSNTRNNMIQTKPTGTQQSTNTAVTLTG

T4: recombinant human CXCL2 (human, UniProt P19875 35-107)
T4 construct: also called GROβ
T4 sequence (looked up): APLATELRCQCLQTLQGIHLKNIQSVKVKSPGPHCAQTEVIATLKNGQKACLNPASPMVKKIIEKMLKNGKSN

T5: recombinant human CCL25 (human, UniProt O15444 24-150)
T5 construct: also called TECK
T5 sequence (looked up): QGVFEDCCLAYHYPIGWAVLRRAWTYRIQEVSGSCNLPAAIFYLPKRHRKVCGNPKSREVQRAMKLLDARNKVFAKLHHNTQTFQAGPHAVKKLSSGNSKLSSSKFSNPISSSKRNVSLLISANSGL

T6: recombinant human CCL4 (human, UniProt P13236 24-92)
T6 construct: also called MIP-1β
T6 sequence (looked up): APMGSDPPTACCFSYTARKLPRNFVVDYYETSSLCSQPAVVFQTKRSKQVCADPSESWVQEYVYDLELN

T7: recombinant human CCL22 (human, UniProt O00626 25-93)
T7 construct: also called MDC
T7 sequence (looked up): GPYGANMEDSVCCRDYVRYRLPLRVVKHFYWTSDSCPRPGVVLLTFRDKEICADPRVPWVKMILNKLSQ

T8: recombinant human CXCL16 (human, UniProt Q9H2A7 30-118, limits assumed)
T8 sequence (looked up): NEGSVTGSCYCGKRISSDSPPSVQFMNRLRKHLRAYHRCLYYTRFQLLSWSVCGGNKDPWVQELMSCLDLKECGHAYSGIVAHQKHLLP

T9: recombinant human CCL17 (human, UniProt Q92583 24-94)
T9 construct: also called TARC
T9 sequence (looked up): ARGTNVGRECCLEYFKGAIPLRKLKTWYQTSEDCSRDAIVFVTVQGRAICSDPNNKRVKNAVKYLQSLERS

T10: recombinant human CCL5 (human, UniProt P13501 24-91)
T10 construct: also called Rantes
T10 sequence (looked up): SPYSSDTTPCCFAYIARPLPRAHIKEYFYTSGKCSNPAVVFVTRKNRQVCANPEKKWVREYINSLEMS

T11: recombinant human CCL16 (human, UniProt O15467 24-120)
T11 construct: also called HCC-4
T11 sequence (looked up): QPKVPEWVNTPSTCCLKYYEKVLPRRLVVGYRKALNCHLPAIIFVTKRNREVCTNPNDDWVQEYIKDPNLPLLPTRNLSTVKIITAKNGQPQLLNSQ

B1: humanized anti-human CCL20 antibody 36LK3/36HC2 (antibody, human IgG1, kappa, V domains shown)
VH: QVQLVQSGAEVKKPGASVKVSCKASGYTFTNYWMHWVRQAPGQGLEWMGVIDPSDSYTTYAQKFQGRVTMTVDTSTSTVYMELSSLRSEDTAVYYCARGNYGVDYAMDYWGQGTLVTVSS
VL: DIQMTQSPSSLSASVGDRVTITCGASENIYGALNWYQRKPGKAPKLLIYGATNLADGVPSRFSGSGSGRDYTLTISSLQPEDFATYYCQNVLITPYTFGQGTKLEIKR
notes: expressed in HEK293 cells; also called HC2/LK3; HC2LK3
B2: humanized anti-human CCL20 antibody 36LC3/36HC2 (antibody, human IgG1, kappa, V domains shown)
VH: B1 VH
VL: B1 VL with G24R, R38Q, D70Q, T72S, Q100G
notes: expressed in HEK293 cells; also called HC2/LC3; HC2LC3
B3: mouse anti-human CCL20 monoclonal antibody 36F7C10 (antibody, V domains shown)
VH: QVQLQQPGAELVKPGASVKMSCKASGYTFTNYWMHWVKQRPGQGLEWIGVIDPSDSYTTYNQKFKGKATLTVDTSSSTAYMQLSSLTSEDSAVYYCTRGNYGVDYAMDYWGQGTSVTVSS
VL: DIQMTQSPASLSASVGETVTITCGASENIYGALNWYQRKQGKSPQLLIYGATNLADGMSSRFSGSGSGRQYSLKISSLHPDDVATYYCQNVLITPYTFGGGTKLEIK
notes: Mouse hybridoma antibody; also called MouseMAb; parental mouse clone 36F7C10
B4: chimeric 36F7C10 antibody (36F7C10-hFc) (antibody, V domains shown)
VH: B3 VH
VL: B3 VL
notes: also called chimeric 36F710; Chimeric MAb

The binders below were run against T1, recombinant human CXCL10 (assay: ELISA, plate-bound chemokine (1 ug/ml), antibody 10 ug/ml, OD450).
Experimental: (§1) The wells of a 96-well plate were coated with 1 μg/ml of the recombinant human chemokines in PBS (−). After overnight incubation at 4° C., the wells were blocked with 1× Block-Ace (Dainippon Sumitomo Pharma, UK-B80) for 1 hour at room temperature. After washing twice with 0.02% Tween 20/PBS (−), we added 50 μl of 10 μg/ml purified 36F7C10, chimeric 36F710, HC2/LK3, or HC2/LC3 in 0.02% Tween 20/PBS (−) to each well. The wells were incubated for 1 hour at room temperature and washed three times as described in Example 3. […] After washing five times, a TMBZ (3,3′,5,5′-tetramethylbenzidine) solution (1%, in N,N-Dimethylformamide) was added to the wells and incubated for 15-30 minutes. The reaction was stopped by adding an equal volume of a 2 M H₂SO₄ stopping solution, and the optical density was read at 450 nm by ARVO (PerkinElmer).

Binder	binding result
B1	no binding (tested: 10 ug/ml)
B2	no binding (tested: 10 ug/ml)
B3	no binding (tested: 10 ug/ml)
B4	no binding (tested: 10 ug/ml)

These binders were tested against T2, recombinant human CCL19 in the same assay as above.
Experimental: as §1

Binder	binding result
B1	no binding (tested: 10 ug/ml)
B2	no binding (tested: 10 ug/ml)
B3	no binding (tested: 10 ug/ml)
B4	no binding (tested: 10 ug/ml)

The binders below were run against T3, recombinant human XCL1 in the same assay as above.
Experimental: as §1

Binder	binding result
B1	no binding (tested: 10 ug/ml)
B2	no binding (tested: 10 ug/ml)
B3	no binding (tested: 10 ug/ml)
B4	no binding (tested: 10 ug/ml)

Each binder was assayed against T4, recombinant human CXCL2 in the same assay as above.
Experimental: as §1

Binder	binding result
B1	no binding (tested: 10 ug/ml)
B2	no binding (tested: 10 ug/ml)
B3	no binding (tested: 10 ug/ml)
B4	no binding (tested: 10 ug/ml)

What follows are binders tested against T5, recombinant human CCL25 in the same assay as above.
Experimental: as §1

Binder	binding result
B1	no binding (tested: 10 ug/ml)
B2	no binding (tested: 10 ug/ml)
B3	no binding (tested: 10 ug/ml)
B4	no binding (tested: 10 ug/ml)

What follows are binders tested against T6, recombinant human CCL4 in the same assay as above.
Experimental: as §1

Binder	binding result
B1	no binding (tested: 10 ug/ml)
B2	no binding (tested: 10 ug/ml)
B3	no binding (tested: 10 ug/ml)
B4	no binding (tested: 10 ug/ml)

What follows are binders tested against T7, recombinant human CCL22 in the same assay as above.
Experimental: as §1

Binder	binding result
B1	no binding (tested: 10 ug/ml)
B2	no binding (tested: 10 ug/ml)
B3	no binding (tested: 10 ug/ml)
B4	no binding (tested: 10 ug/ml)

These binders were tested against T12, recombinant human CCL7 (human, UniProt P80098 24-99) in the same assay as above.
T12 construct: also called MARC
Experimental: as §1

T12 sequence (P80098 24-99 limits assumed): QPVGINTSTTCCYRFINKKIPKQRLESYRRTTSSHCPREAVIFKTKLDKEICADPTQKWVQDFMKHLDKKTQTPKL

Binder	binding result
B1	no binding (tested: 10 ug/ml)
B2	no binding (tested: 10 ug/ml)
B3	no binding (tested: 10 ug/ml)
B4	no binding (tested: 10 ug/ml)

These binders were tested against T8, recombinant human CXCL16 in the same assay as above.
Experimental: as §1

Binder	binding result
B1	no binding (tested: 10 ug/ml)
B2	no binding (tested: 10 ug/ml)
B3	no binding (tested: 10 ug/ml)
B4	no binding (tested: 10 ug/ml)

These binders were tested against T9, recombinant human CCL17 in the same assay as above.
Experimental: as §1

Binder	binding result
B1	no binding (tested: 10 ug/ml)
B2	no binding (tested: 10 ug/ml)
B3	no binding (tested: 10 ug/ml)
B4	no binding (tested: 10 ug/ml)

The binders below were run against T10, recombinant human CCL5 in the same assay as above.
Experimental: as §1

Binder	binding result
B1	no binding (tested: 10 ug/ml)
B2	no binding (tested: 10 ug/ml)
B3	no binding (tested: 10 ug/ml)
B4	no binding (tested: 10 ug/ml)

What follows are binders tested against T11, recombinant human CCL16 (assay: SPR (Biacore): antibody captured on anti-human Fc, 100 nM chemokine injected; ratio = chemokine binding level over antibody capture level).
Experimental: We used Biacore™ analysis to test whether HC2/LK3 and HC2/LC3 cross-react with CCL16. Monoclonal mouse anti-human Fc was immobilized on all four flow cells of a CM5 chip at a flow rate of 25 μl/min with HBS-EP buffer containing 0.2 mg/mL BSA. Subsequently, 50 μl of a 1 μg/ml solution of chimeric, HC2/LC3, or HC2/LK3 antibody in HBS-EP buffer with 0.2 mg/ml BSA was injected over flow cells 2, 3, and 4, respectively. 150 μl of a 100 nM solution of CCL20 or CCL16 in HBS-EP buffer (or buffer alone) with 0.2 mg/ml BSA was then injected over all four flow cells at a flow rate of 40 μl/min. Dissociation followed for 20 min. Flow cell 1 (anti-human Fc antibody alone) was used as a reference for all flow cells.
Under these conditions, human CCL20 bound to the chimeric (FIG. 13A), HC2/LC3 (FIG. 13B), and HC2/LK3 (FIG. 13B) antibodies captured on the chip with similar strength.

Binder	ReqCk/ReqAb ratio
B1	0.006
B2	0.005
B4	0.006
